Results published in patent publication US20250026816A1, “Antibodies for Use as Therapeutics Against Bacterial Infections” (priority 2021, published 2025).
Changes are numbered by the printed parent chain.

B1: Antibody 1348 (antibody, V domains shown)
VH: EVQLVESGGGFVQPGRSLRLSCIASGFTFDDYAMHWVRQTPGKGLEWVSVISWNSVSIGYADSVKGRFTISRDNAKNSLYLQMNSLRAEDTALYYCARYSSGPDAFDIWGQGTMVTVSS
VL: DIQMTQSPSSLSASVGDRVTITCRASQDIRNDLGWYQQKPGKAPKRLIYAASSLQSGVPSRFSGSGFGTEFTLTISSLQPEDFATYYCLQHYTYPPTFGGGTRVEIK
notes: Only variable domains are tied to 1348; also called PPB-1348
B2: Antibody 1349 (antibody, V domains shown)
VH: QITLKESGPTLVKPTQTLTLTCTFSGFSLSTSGVGVGWIRQPPGKALEWLALIYWDDDKRYSPSLKSRLTITKDTSKNQVVLTMTNMDPVDTATYYCAHSYYYDSSDSYYFDYWGQGTLVTVSS
VL: DIQLTQSPSFLSASVGDRVTITCWASQGISSRLAWYQQKPGKAPKLLIYAASTLQSGVPSRFSGSGSGTEFTLTISSLQPEDFGNYYCQQFNTYPFTFGPGTKVDIKR
notes: It was expressed as human IgG1; also called PPB-1349
B3: Antibody 1540 (antibody, V domains shown)
VH: B1 VH
VL: B1 VL
notes: also called PPB-1540
B4: Antibody 1548 (antibody, V domains shown)
VH: QVQLVESGGGVVQPGRSLRLSCAASGFTFSSYAMHWVRQAPGKGLEWVAVISYDGSNKYYADSVKGRFTISRDNSKNTLYLQMNSLRAEDTAVYYCAGYGGNSLDPWGQGTLVTVSS
VL: AIQMTQSPSSLSASVGDRVTITCRASQGIRNDLVWYQQKPGKAPKVLIYDASSLQSGVPSRFSGSGFGTDFTLTISSLQPEDFATYYCLQDYNYPCSFGQGTKLEIK
notes: also called PPB-1548
B5: Antibody 1550 (antibody, V domains shown)
VH: QVQLVESGGGVVQPGRSLRLSCAASGFTFSSYGMHWVRQAPGKGLEWVAVISYDGSNKYYADSVKGRFTISRDNSKNTLYLQMNSLRAEDTAVYYCAKESLTMVRGEGFDPWGQGTLVTVSS
VL: DIQMTQSPSSVSASVGDRVTITCRASQGISSWLAWYQQKPGKAPKLLIYAASSLQSGVPSRFSGSGSGTDFTLTISSLQPEDFATYYCQQANSFPCSFGQGTKLEIK
notes: also called PPB-1550
B6: 1348 (antibody, V domains shown)
VH: B1 VH
VL: B1 VL
B7: 1540 (antibody, V domains shown)
VH: B1 VH
VL: B1 VL
B8: Antibody 1042: anti-OC1 LOS antibody; VH SEQ ID No: 188, VL SEQ ID No: 191 (antibody, V domains shown)
VH: B2 VH with L52V, L69V, Y103H, G115A
VL: DIQLTQSPSFLSASVGDRVTITCWASQGISSRLAWYQQKPGKAPKLLIYAASTLQSGVPSRFSGSGSGTEFTLTISSLQPEDFATYYCQQLTSYPFTFGPGTKVDIK

Assays:
[1] = molecular target: T1, Oxa-23 carbapenemase enzyme (Acinetobacter baumannii, UniProt Q9L4P2 18-273); test: serological expression cloning: mAb screened on plaques of a phage expression library of A. baumannii genomic DNA (BAL 084, BAL 276), bound phage sequenced
T1 construct: No signal peptide cleavage site is stated; also called class D beta-lactamase; 30kD protein

[2] = molecular target: T1, Oxa-23 carbapenemase enzyme; test: binding to Oxa-23 on A. baumannii OMVs; method not given at this place
Oxa-23 [3] = molecular target: T2, Oxa-23 (Acinetobacter baumannii, UniProt Q9L4P2); test: Specific binding to Oxa-23 on OMVs (summary statement); settings: on outer membrane vesicles (OMVs) of Acinetobacter baumannii bacteria
T2 construct: endogenous in cells; host or cells: OMVs of GC2 A. baumannii clinical strains

Oxa-23 [4] = molecular target: T2, Oxa-23; test: Phage expression library screen (serological expression cloning) for antigen identification; type: binding; settings: phage expression library of genomic DNA from strains BAL 084 and BAL 276
Description: The particular binding antigen (e.g. Oxa-23, OC1 LOS, or KL49) of an antibody may be determined using a phage expression library e.g. as described in Example 5. For example, shotgun A. Baumannii genomic DNA is incorporated into a phage expression library. The antibody is then screened for reactivity with phage plaques from the expression library and the individual phage binding to the antibody is identified. The identified phage is sequenced, and the sequencing information used to elucidate the binding antigen of the antibody. A suitable phage method for antigen identification will be known to a person skilled in the art. For example, a suitable phage method is described in Lodes M J, Dillon D C, Houghton R L, Skeiky Y A. Expression cloning. Methods Mol Med. 2004; 94:91-106. doi: 10.1385/1-59259-679-7:91. PMID: 14959824, the contents of which are incorporated by reference.
Focusing on the cross-reactive mAbs identified, we used a phage expression library incorporating shotgun A. baumannii genomic DNA from strains BAL 084 and BAL 276. […] The LOS types were determined for a selection of isolates by OCL specific PCR. […] Next, LOS was extracted (with extensive proteinase K treatment to remove any proteins) and analyzed by Western blot using mAb 1042). […] Capsule antigens were extracted from selected strains bearing KL49 and analyzed by subsequent SDS-PAGE and Western blot analysis using the mAb 1416.

OC1 LOS = test: Western blot of extracted LOS; type: binding, Acinetobacter baumannii
Description: (§1) Focusing on the cross-reactive mAbs identified, we used a phage expression library incorporating shotgun A. baumannii genomic DNA from strains BAL 084 and BAL 276. Because the mAbs could potentially bind a polypeptide epitope, we screened mAbs for reactivity with phage plaques from the phage expression library. Using this screening mechanism, we were able to identify individual phage binding to Abs 1348, 1349. By sequencing the phage, we were able to elucidate 1348 and 1349 bound Oxa-23, a class D […] that is a major group of enzymes involved in resistance to carbapenem antibiotics. That we have identified mAbs binding to Oxa-23 in a target agnostic screen is highly significant. […] Secondly, since Oxa-23 is a functional enzyme that inactivates carbapenem and carbapenem resistance is a major clinical issue for the treatment of nosocomial A. baumannii infection, it may be possible to block enzymatic function of Oxa-23 by mAbs and render A. baumannii susceptible to carbapenems. […] The LOS types were determined for a selection of isolates by OCL specific PCR. […] Next, LOS was extracted (with extensive proteinase K treatment to remove any proteins) and analyzed by Western blot using mAb 1042). […] Capsule antigens were extracted from selected strains bearing KL49 and analyzed by subsequent SDS-PAGE and Western blot analysis using the mAb 1416.

E. coli NCTC 13441 LPS = test: Western blot of extracted LPS (control); type: binding; settings: E. coli NCTC13441 (025b)
Description: as §1

T2 sequence (Q9L4P2 18-273): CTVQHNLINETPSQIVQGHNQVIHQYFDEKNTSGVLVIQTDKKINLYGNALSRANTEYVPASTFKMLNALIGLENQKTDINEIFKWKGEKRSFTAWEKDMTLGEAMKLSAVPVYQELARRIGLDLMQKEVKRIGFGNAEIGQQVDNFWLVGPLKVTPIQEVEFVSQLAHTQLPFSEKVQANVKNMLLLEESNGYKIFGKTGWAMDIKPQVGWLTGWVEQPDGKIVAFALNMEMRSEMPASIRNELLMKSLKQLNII
T1 sequence (Q9L4P2 18-273 limits assumed): as the sequence (Q9L4P2 18-273) above

Molecule	binding result [2]	specific binding to Oxa-23 (Oxa-23 [3])	further results
B1			binding result [1]: binds
B2			binding result [1]: binds
B3	binds		
B4	binds	specifically bind to Oxa-23	
B5	binds	specifically bind to Oxa-23	
B6		specifically bind to Oxa-23	antigen bound, elucidated by sequencing the binding phage (Oxa-23 [4]): bound Oxa-23
B7		specifically bind to Oxa-23	
B8			binding to extracted LOS (OC1 LOS; ATCC 17978 (OCL2)): no binding; binding to 10kD target in extracted LOS (OC1 LOS; OC1 isolates A. baumannii BAL_191, BAL_339, BAL_372): Specific binding; binding to extracted LPS (E. coli NCTC 13441 LPS): no binding
